Measurements: patent US20210403514A1 (NATIONAL INSTITUTE FOR BIOTECHNOLOGY IN THE NEGEV, published 2021)
Positions count from the first letter of the chain named. Names and notes keep the numbering of the source. One block for each binder: values may come before it.

Tests used:
[1] = biological target: T1, soluble human c-FMS receptor (extracellular domains, residues Met1-Glu512) (Sino Biological) (human, UniProt P07333 20-512); assay: SPR (ProteOn XPR36), variant immobilised, c-FMS 0-200 nM as analyte, equilibrium
T1 construct: range 1-512; Analyte in both SPR experiments; The printed range starts at Met1, so it includes the signal peptide; also called human c-FMS soluble proteins

integrin α5β1 = biological target: T2, integrin α5β1 (human, UniProt P08648 42-995; P05556 21-728, limits assumed); assay: SPR (ProteOn XPR36); α5β1 integrin immobilized, variant flowed at 1 µM
T2 construct: Immobilised on the SPR chip

integrin α4β7 = biological target: T3, integrin α4β7 (human, UniProt P13612 34-977; P26010 20-723, limits assumed); assay: SPR (ProteOn XPR36); α4β7 integrin immobilized, variant flowed at 1 µM
T3 construct: Immobilised on the SPR chip

[2] = biological target: the molecule itself; assay: BS3 chemical crosslinking, denaturing SDS-PAGE, Coomassie stain; self-association (homodimer)
[3] = biological target: T4, soluble human αvβ3 integrin (human, UniProt P06756 31-992; P05106 27-718); assay: SPR (ProteOn XPR36), variant immobilised, αvβ3 integrin 0-200 nM as analyte, equilibrium
T4 construct: R&D Systems for yeast display; also called integrin αvβ3; recombinant αvβ3 integrin

integrin α3β1 = biological target: T5, integrin α3β1 (human, UniProt P26006 33-991; P05556 21-728, limits assumed); assay: SPR (ProteOn XPR36); α3β1 integrin immobilized, variant flowed at 1 µM
T5 construct: Immobilised on the SPR chip

[4] = biological target: the molecule itself; assay: BS3 chemical crosslinking, denaturing SDS-PAGE, Coomassie stain; self-association (homodimer); remark: listed apart in the source
[5] = biological target: T4, soluble human αvβ3 integrin; assay: SPR (ProteOn XPR36), M-CSFαvβ3 immobilised, αvβ3 integrin 0-200 nM as analyte, equilibrium
[6] = biological target: the molecule itself; assay: SAXS, radius of gyration against protein concentration; oligomeric state (homodimer) in solution
[7] = biological target: T1, soluble human c-FMS receptor …; assay: SPR (ProteOn XPR36), M-CSF protein immobilised, c-FMS (Met1-Glu512) 4.375-70 nM as analyte, equilibrium, N=3
[8] = biological target: T6, soluble Fc conjugated human c-FMS (R&D systems) (human, UniProt P07333 20-512); assay: yeast surface display flow cytometry; displayed M-CSFM titrated with c-FMS-Fc (0.5 nM to 2000 nM); apparent KD
T6 construct: Bought reagent; Used in all yeast display experiments; also called c-FMS-Fc; c-FMS-Fc recombinant protein; not shown: Fc (detected with goat anti human Fc)

[9] = biological target: T6, soluble Fc conjugated human c-FMS (R&D …); assay: yeast surface display, flow cytometry; soluble c-FMS-Fc titrated from 0.5 to 2000 nM
[10] = biological target: T7, murine c-FMS on bone marrow derived monocytes (BMMs) (mouse, UniProt P09581 20-977); assay: cell-based or functional assay
T7 sequence (looked up): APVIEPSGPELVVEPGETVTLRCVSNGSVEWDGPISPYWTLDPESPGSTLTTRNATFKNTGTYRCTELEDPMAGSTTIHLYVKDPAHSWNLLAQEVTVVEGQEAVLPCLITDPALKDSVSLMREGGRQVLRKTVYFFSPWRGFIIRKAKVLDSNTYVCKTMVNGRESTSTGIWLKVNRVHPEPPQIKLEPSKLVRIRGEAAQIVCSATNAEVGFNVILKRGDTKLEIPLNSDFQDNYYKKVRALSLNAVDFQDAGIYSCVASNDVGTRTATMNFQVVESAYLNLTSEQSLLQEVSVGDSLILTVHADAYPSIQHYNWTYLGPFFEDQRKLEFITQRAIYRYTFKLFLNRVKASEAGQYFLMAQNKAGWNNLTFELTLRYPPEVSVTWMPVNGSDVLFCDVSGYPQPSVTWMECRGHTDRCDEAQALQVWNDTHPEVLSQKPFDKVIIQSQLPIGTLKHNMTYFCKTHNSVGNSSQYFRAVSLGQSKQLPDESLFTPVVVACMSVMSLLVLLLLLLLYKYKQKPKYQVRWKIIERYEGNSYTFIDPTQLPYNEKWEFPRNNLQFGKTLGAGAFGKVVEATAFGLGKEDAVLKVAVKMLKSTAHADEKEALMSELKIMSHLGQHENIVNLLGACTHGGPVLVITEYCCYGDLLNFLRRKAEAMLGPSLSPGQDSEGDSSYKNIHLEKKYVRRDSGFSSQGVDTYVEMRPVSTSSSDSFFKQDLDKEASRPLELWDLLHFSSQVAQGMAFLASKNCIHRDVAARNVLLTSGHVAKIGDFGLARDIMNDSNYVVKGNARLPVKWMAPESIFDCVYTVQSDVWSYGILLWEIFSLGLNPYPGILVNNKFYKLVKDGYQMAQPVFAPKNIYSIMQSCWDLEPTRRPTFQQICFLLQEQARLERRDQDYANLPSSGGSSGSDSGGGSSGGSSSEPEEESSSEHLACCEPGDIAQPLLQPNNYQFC

[11] = biological target: T1, soluble human c-FMS receptor …; assay: SPR (ProteOn XPR36), M-CSF protein immobilised, c-FMS 0-200 nM as analyte, equilibrium
[12] = biological target: T4, soluble human αvβ3 integrin; assay: SPR (ProteOn XPR36); variant immobilized by amine coupling, soluble αvβ3 integrin flowed at 12.5 to 200 nM; panel assigned to M-CSFM although the legend prints '9A and 9E'
[13] = biological target: the molecule itself; assay: BS3 chemical crosslinking, SDS-PAGE, InstantBlue stain; self-association (homodimer)
[14] = biological target: T1, soluble human c-FMS receptor …; assay: SPR (ProteOn XPR36), M-CSF protein immobilised, c-FMS (Met1-Glu512) as analyte, equilibrium, N=3

T5 sequence (P26006 33-991 limits assumed, chain 1 of 2): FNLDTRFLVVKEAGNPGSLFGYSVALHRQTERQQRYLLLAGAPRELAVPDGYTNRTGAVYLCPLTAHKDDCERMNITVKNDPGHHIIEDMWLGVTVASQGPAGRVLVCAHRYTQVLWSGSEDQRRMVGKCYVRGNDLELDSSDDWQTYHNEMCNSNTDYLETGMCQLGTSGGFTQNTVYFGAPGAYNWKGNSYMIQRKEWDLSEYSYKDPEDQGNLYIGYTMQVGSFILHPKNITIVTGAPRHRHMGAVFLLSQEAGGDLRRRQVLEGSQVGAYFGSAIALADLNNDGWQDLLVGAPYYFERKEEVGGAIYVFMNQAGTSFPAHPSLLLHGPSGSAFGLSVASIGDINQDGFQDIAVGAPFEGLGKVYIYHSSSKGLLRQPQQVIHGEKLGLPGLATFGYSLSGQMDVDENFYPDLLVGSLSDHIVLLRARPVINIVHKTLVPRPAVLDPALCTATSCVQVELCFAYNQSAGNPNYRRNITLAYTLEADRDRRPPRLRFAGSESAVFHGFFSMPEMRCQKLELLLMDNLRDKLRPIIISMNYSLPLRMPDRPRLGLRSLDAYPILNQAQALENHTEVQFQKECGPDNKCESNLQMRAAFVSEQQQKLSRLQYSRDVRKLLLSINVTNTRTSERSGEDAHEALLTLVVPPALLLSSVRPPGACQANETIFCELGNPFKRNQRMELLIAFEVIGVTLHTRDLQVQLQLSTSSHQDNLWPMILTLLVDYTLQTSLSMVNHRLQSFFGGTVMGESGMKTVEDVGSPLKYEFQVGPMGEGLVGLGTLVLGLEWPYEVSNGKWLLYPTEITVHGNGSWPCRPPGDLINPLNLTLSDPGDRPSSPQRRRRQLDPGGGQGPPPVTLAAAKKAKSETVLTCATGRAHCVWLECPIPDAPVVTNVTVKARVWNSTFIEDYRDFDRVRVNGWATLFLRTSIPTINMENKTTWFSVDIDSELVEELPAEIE
T5 sequence (P05556 21-728 limits assumed, chain 2 of 2): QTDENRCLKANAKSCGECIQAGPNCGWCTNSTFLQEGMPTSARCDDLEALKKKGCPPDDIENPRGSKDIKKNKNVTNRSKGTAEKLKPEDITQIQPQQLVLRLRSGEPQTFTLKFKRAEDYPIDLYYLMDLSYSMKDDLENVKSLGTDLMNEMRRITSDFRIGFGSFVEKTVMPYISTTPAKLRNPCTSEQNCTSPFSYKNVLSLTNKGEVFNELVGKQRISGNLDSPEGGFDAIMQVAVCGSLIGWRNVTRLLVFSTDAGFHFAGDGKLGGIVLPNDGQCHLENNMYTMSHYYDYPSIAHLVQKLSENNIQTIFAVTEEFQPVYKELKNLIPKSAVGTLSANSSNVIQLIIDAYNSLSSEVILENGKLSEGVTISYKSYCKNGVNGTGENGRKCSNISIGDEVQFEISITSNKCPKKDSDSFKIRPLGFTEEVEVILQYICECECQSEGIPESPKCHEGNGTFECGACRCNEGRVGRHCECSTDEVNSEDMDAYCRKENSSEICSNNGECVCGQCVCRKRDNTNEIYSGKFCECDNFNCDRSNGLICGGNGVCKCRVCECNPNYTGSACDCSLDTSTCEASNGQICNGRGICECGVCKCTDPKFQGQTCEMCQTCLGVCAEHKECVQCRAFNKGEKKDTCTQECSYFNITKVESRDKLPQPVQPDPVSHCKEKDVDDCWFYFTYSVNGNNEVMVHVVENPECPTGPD
T4 sequence (P06756 31-992 limits assumed, chain 1 of 2): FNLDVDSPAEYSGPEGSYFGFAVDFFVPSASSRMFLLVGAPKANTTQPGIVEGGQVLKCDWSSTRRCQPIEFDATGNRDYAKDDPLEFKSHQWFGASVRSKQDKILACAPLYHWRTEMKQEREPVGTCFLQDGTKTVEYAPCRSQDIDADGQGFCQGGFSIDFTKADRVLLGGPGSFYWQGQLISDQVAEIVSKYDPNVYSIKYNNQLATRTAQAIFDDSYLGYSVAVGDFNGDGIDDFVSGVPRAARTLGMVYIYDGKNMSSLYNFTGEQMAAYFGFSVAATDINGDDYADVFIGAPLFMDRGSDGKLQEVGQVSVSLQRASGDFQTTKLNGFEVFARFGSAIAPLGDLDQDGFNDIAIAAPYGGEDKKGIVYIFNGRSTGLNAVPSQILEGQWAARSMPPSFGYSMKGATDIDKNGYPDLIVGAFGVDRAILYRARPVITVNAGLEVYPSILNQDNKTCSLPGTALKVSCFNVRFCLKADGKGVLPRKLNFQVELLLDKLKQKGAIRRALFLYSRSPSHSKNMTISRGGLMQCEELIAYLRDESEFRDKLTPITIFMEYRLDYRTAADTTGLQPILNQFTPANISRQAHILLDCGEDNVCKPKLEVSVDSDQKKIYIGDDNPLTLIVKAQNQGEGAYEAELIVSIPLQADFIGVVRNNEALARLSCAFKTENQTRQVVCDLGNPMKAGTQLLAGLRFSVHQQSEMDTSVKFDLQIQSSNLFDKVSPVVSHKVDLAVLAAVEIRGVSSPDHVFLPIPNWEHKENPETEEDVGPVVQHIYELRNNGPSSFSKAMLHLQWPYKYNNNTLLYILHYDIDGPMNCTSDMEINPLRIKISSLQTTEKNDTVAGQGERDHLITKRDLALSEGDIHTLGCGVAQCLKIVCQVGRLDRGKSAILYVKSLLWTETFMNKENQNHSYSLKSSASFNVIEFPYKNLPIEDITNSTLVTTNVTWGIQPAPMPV
T4 sequence (P05106 27-718 limits assumed, chain 2 of 2): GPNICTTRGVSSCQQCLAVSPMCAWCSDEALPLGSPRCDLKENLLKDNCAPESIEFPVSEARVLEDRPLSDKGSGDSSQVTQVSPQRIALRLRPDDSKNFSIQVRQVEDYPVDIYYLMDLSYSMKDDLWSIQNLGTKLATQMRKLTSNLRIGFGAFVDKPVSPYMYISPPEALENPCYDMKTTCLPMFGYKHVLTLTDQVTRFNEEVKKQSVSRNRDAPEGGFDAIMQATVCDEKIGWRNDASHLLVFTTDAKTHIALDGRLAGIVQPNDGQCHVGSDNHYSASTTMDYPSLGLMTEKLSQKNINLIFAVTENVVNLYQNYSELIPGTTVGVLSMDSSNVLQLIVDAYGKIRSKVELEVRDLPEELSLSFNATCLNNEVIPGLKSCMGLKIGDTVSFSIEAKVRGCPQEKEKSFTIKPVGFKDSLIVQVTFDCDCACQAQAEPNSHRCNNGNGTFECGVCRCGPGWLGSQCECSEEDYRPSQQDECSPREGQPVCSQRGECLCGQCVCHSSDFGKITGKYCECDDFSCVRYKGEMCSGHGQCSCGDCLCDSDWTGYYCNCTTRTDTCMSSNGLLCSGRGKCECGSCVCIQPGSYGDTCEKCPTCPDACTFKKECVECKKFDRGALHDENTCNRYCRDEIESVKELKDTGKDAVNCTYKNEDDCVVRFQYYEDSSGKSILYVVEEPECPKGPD
T2 sequence (P08648 42-995 limits assumed, chain 1 of 2): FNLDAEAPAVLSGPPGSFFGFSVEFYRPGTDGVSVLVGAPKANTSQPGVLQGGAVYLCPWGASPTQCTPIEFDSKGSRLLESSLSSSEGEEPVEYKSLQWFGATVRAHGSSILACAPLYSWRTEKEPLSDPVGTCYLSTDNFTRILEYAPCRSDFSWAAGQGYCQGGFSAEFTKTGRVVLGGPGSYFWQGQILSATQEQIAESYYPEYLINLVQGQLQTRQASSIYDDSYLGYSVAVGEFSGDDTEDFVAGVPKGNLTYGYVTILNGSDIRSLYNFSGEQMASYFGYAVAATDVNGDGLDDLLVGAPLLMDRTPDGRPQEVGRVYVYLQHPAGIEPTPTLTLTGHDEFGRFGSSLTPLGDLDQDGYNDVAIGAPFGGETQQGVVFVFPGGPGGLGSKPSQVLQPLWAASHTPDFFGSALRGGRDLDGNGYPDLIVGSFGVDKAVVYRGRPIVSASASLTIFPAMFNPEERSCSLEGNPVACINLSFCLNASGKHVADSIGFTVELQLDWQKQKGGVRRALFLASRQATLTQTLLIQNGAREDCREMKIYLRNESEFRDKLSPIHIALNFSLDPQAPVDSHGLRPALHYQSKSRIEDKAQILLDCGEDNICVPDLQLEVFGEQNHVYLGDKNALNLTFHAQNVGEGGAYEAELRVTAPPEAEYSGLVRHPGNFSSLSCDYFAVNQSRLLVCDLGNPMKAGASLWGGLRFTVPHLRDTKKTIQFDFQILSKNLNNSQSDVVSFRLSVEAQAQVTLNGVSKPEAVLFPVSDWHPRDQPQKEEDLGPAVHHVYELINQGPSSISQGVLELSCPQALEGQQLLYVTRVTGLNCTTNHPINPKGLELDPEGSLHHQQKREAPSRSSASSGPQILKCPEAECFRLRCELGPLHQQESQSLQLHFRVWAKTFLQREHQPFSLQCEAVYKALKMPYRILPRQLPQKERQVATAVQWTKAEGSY
T2 sequence (P05556 21-728 limits assumed, chain 2 of 2): as the sequence (P05556 21-728 limits assumed, chain 2 of 2) above
T1 sequence (P07333 20-512 limits assumed): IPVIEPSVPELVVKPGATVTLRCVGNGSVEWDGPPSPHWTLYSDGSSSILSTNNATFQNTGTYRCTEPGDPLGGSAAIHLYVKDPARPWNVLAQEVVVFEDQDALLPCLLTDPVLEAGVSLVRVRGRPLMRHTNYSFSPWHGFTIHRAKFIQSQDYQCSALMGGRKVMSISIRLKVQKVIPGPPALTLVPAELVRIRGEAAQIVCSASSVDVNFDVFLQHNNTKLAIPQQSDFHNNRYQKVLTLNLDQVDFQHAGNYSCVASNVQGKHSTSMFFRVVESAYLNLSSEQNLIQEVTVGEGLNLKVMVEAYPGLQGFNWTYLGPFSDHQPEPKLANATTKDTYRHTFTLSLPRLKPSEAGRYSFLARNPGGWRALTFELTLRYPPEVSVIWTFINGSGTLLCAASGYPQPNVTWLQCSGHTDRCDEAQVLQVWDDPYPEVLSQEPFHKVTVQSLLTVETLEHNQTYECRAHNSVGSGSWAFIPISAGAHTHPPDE
T6 sequence (P07333 20-512 limits assumed): as above

B2: M-CSFRGD variant 4.22, purified soluble, non-glycosylated (designed binder)
chain: EEVSEYCSHMIGSGHLQSLQRLIDQTSRGDSPSITFEFVDQEQLKDPVCYLKKAFLLVQDIMEDTMRFRDNTPNAIAIVQLQELSLRLKSCFTKDYEEHDKACVRTFYETPLQLLEKVKNVFNETKNLLDKDWNIFSKNCNNSFAECSSQGHERQSEGS
modifications: N-glycans removed with Endo HF (non-glycosylated). Labelled with DyLight 488 NHS ester on amines for the cell binding assays. Amine-coupled to the chip for SPR.
notes: Pichia pastoris product; 21.7 kDa by MS; not shown: N-terminal FLAG tag, C-terminal 6xHis tag and the vector junction residues (pPIC9K cloning site)
Kd [1]: 152 nM
binding result (integrin α5β1): no binding (tested: 1 µM)
binding result (integrin α4β7): no binding (tested: 1 µM)
binding result [4]: no binding
Kd [3]: 199 nM
binding result (integrin α3β1): no binding (tested: 1 µM)

B5: human wild-type M-CSF (M-CSFWT) (ligand)
chain: EEVSEYCSHMIGSGHLQSLQRLIDSQMETSCQITFEFVDQEQLKDPVCYLKKAFLLVQDIMEDTMRFRDNTPNAIAIVQLQELSLRLKSCFTKDYEEHDKACVRTFYETPLQLLEKVKNVFNETKNLLDKDWNIFSKNCNNSFAECSSQGHERQSEGS
notes: also called human M-CSFWT
binding result [6]: binds
Kd [7]: 25.1 nM

B6: M-CSFM displayed on the yeast surface (YSD M-CSFM) (ligand)
chain: B5 chain with C31S
notes: also called M-CSF monomer; not shown: yeast surface display fusion partner (pCTCON construct on the S. cerevisiae cell wall, with c-myc tag)
Kd [8]: 20 nM
EC50 (read off the curve) [9]: ~20 nM

B7: M-CSFM, purified soluble, non-glycosylated (M-CSFC31S) (ligand)
chain: B5 chain with C31S
modifications: N-glycans removed with Endo HF (non-glycosylated)
notes: Expressed in Pichia pastoris GS115; Forms non-covalent dimers; also called non-glycosylated M-CSFM; M-CSF monomer; not shown: FLAG tag at the N-terminus of the cloning site (pPIC9K); 6xHis tag at the C-terminus of the cloning site
c-FMS phosphorylation at the peak concentration, fold against M-CSFWT [10]: 10 fold
c-FMS phosphorylation at the peak concentration, fold against the positive control (0.5 nM murine M-CSF) [10]: 40 fold
Kd [11]: 31.6 nM
binding result [12]: no binding (tested: 200 nM)
binding result [13]: binds

B8: M-CSFC31S,M27R (designed binder)
chain: B5 chain with M27R, C31S
notes: monomer; Purified from Pichia pastoris GS115; also called M-CSFM,M27R; M-CSF double mutant
Kd [14]: 61.5 nM
binding result [13]: no binding

Further lines, with some results ahead:

Kd [1]: 219 nM
binding result (integrin α5β1): no binding (tested: 1 µM)
binding result (integrin α4β7): no binding (tested: 1 µM)
Kd [3]: 108 nM
binding result (integrin α3β1): no binding (tested: 1 µM)
B1: M-CSFRGD variant 4.24, purified soluble, non-glycosylated (designed binder)
chain: EEVSEYCSHMIGSGHLQSLQRLIDSQMETSSQITFEFVDQEQLKDPVCYLKKAFLLVQDIMEDEPVRGDNINPNAIAIVQLQELSLRLKSCFTKDYEEHDKACVRTFYETPLQLLEKVKNVFNETKNLLDKDWNIFSKNCNNSFAECSSQGHERQSEGS
modifications: N-glycans removed with Endo HF (non-glycosylated)
notes: not shown: FLAG tag at the N-terminus of the cloning site (pPIC9K); 6xHis tag at the C-terminus of the cloning site
binding result [2]: no binding

Kd [1]: 96 nM
binding result (integrin α5β1): no binding (tested: 1 µM)
binding result (integrin α4β7): no binding (tested: 1 µM)
Kd [3]: 245 nM
binding result (integrin α3β1): no binding (tested: 1 µM)
B3: M-CSFRGD variant 5.6, purified soluble, non-glycosylated (designed binder)
chain: B2 chain with Q25T, T26Y, S27P, S31M, P32C
modifications: N-glycans removed with Endo HF (non-glycosylated). Labelled with DyLight 488 NHS ester on amines for the cell binding assays. Amine-coupled to the chip for SPR.
notes: Pichia pastoris product; 22 kDa by MS; also called M-CSFRGD 5.6; M-CSF5.6; not shown: N-terminal FLAG tag, C-terminal 6xHis tag and the vector junction residues (pPIC9K cloning site)
binding result [2]: no binding

Kd [5]: 231 nM
B4: M-CSFαvβ3 (variant 4.22 with histidine to alanine in positions 9 and 15), purified soluble (designed binder, not shown: small tags and cut ends)
chain: B2 chain with H9A, H15A
modifications: Expressed in Pichia with an N-terminal FLAG tag and a C-terminal 6xHis tag, neither of which is in the letters. N-glycans were removed with Endo HF.

Kd [11]: 42.6 nM
B9: glycosylated M-CSFM, purified soluble (ligand)
chain: B5 chain with C31S
modifications: N-glycosylated (two glycosylation sites in positions 122 and 140)
notes: Pichia pastoris product without Endo HF treatment; not shown: FLAG tag at the N-terminus of the cloning site (pPIC9K); 6xHis tag at the C-terminus of the cloning site
